# Results taken from patent US20170058008A1 (SYNGENTA PARTICIPATIONS, published 2017).
# Tests used:
# [1] = target: ATP synthase β from S. frugiperda (native) (S. frugiperda); assay: cell-based or functional assay
# [2] = target: Hsc70 from S. frugiperda (native) (S. frugiperda); assay: cell-based or functional assay
# [3] = target: ATP synthase α from S. frugiperda (native) (S. frugiperda); assay: cell-based or functional assay
# [4] = target: Hsc70, cadherin from M. sexta, and aminopeptidase-N (APN) from M. sexta, co-expressed in Drosophila S2 cells (S. frugiperda; M. sexta); assay: cell-based or functional assay
# [5] = target: Hsc70 and serpin, co-expressed in Drosophila S2 cells (S. frugiperda; M. sexta) (UniProt Q9U639); assay: cell-based or functional assay
# [6] = target: ATP synthase α + β of Sf9 cells (native, both silenced together) (S. frugiperda); assay: cell-based or functional assay
# [7] = target: cell surface displayed serpin from M. sexta (yeast display, pYD1) (M. sexta); assay: biopanning of a yeast surface-displayed M. sexta cDNA library with biotinylated trypsinized Vip3A; none out of twenty clones in the control without bVip3A/T
# [8] = target: biotin labeled Cry1Ab (UniProt P0A370 29-607, biotin labeled (sites not given)); assay: Far-Western blot, V5-enriched protein on PVDF probed with biotin labeled Cry1Ab
# [9] = target: T1, V5-tagged Cry1Ab (UniProt P0A370 29-607, limits assumed); assay: fluorescent confocal microscopy, co-localization on transfected Sf9 cells
# T1 construct: not shown: V5 tag
molecule,measurement,setting,value
Vip3A,"Mortality (%) Day 2, FAW larvae pretreated with dsRNA for the target, Vip3A at 100 ng/cm^2",[1],0%
same,"Mortality (%) Day 6, FAW larvae pretreated with dsRNA for the target, Vip3A at 100 ng/cm^2",[1],15.4%
same,"Mortality (%) Day 10, FAW larvae pretreated with dsRNA for the target, Vip3A at 100 ng/cm^2",[1],53.9%
same,"Mortality (%) Day 2, FAW larvae pretreated with dsRNA for the target, Vip3A at 100 ng/cm^2",[2],0%
same,"Mortality (%) Day 6, FAW larvae pretreated with dsRNA for the target, Vip3A at 100 ng/cm^2",[2],0%
same,"Mortality (%) Day 10, FAW larvae pretreated with dsRNA for the target, Vip3A at 100 ng/cm^2",[2],6.25%
same,"Mortality (%) Day 2, FAW larvae pretreated with dsRNA for the target, Vip3A at 100 ng/cm^2",[3],12.5%
same,"Mortality (%) Day 6, FAW larvae pretreated with dsRNA for the target, Vip3A at 100 ng/cm^2",[3],12.5%
same,"Mortality (%) Day 10, FAW larvae pretreated with dsRNA for the target, Vip3A at 100 ng/cm^2",[3],37.5%
trypsinized Vip3A,"percent reduction of cell viability, Sf9 cells with the target silenced by dsRNA, 200 nM trypsinized Vip3A (GFP dsRNA control 30.055)",[1],22.7%
same,"% of dead cells, co-transfected S2 cells, 0 nM Vip3A",[4],4%
same,"% of dead cells, co-transfected S2 cells, 25 nM Vip3A",[4],3%
same,"% of dead cells, co-transfected S2 cells, 50 nM Vip3A",[4],7%
same,"% of dead cells, co-transfected S2 cells, 100 nM Vip3A",[4],6%
same,"% of dead cells, co-transfected S2 cells, 200 nM Vip3A",[4],9%
same,"% of dead cells, co-transfected S2 cells, 400 nM Vip3A",[4],10%
same,"% of dead cells, co-transfected S2 cells, 800 nM Vip3A",[4],8%
same,"percent reduction of cell viability, Sf9 cells with the target silenced by dsRNA, 200 nM trypsinized Vip3A (GFP dsRNA control 30.055)",[2],17.1%
same,"percent reduction of cell viability, Sf9 cells with the target silenced by dsRNA, 200 nM trypsinized Vip3A (GFP dsRNA control 30.055)",[3],0.99%
same,"% of dead cells, co-transfected S2 cells, 0 nM Vip3A",[5],1.5%
same,"% of dead cells, co-transfected S2 cells, 25 nM Vip3A",[5],6%
same,"% of dead cells, co-transfected S2 cells, 50 nM Vip3A",[5],17%
same,"% of dead cells, co-transfected S2 cells, 100 nM Vip3A",[5],34%
same,"% of dead cells, co-transfected S2 cells, 200 nM Vip3A",[5],64%
same,"% of dead cells, co-transfected S2 cells, 400 nM Vip3A",[5],81%
same,"% of dead cells, co-transfected S2 cells, 800 nM Vip3A",[5],96%
same,"percent reduction of cell viability, Sf9 cells with the target silenced by dsRNA, 200 nM trypsinized Vip3A (GFP dsRNA control 30.055)",[6],0.986%
same,share of sequenced clones carrying the serpin gene after seven rounds of selection,[7],45%
"ATP synthase α from S. frugiperda, V5/6xHis-tagged (pIZT/V5-His) (other, not shown: small tags and cut ends, Expressed in Sf9 cells) MSLISARIAGSVARRLPNAASQVSKVAGVAAPAVAVASRNFHVSPTQKAAEISTILEERILGAAPKADLEETGRVLSIGDGIARVYGLKNIQAEEMVEFSSGLKGMALNLEPDNVGVVVFGNDKLIKEGDIVKRTGAIVDVPVGEQLLGRVVDALGNAIDGKGPIDTKSRMRVGIKAPGIIPRVSVREPMQTGIKAVDSLVPIGRGQRELIIGDRQTGKTALAIDTIINQQRFNKGQDEKKKLYCIYVAIGQKRSTVAQIVKRLTDAGAINYTIIVSRTASDAAPLQYLAPYSGCAMGEFFRDNGKHALIIYDDLSKQAVAYRQMSLLLRRPPGREAYPGDVFYLHSRLLERAAKMSDKMGGGSLTALPVIETQAGDVSAYIPTNVISITDGQIFLETELFYKGIRPAINVGLSVSRVGSAAQTKAMKQVAGSMKLELAQYREVAAFAQFGSDLDAATQQLLNRGMRLTELLKQGQYVPMAIEEQVAIIYCGVRGHLDKLDPSKITGFEKEFTQHIKTSHQGLLATIAKDGQITPESDAALKKIVTDFLATFTQSQ",binding result,[8],no binding
same,binding result,[9],no binding (tested: 200 nM)
